Test results as given in PMC5589886.

Legend:
[1] = target: relaxin family peptide receptor-1 (human) (UniProt Q9HBX9)
[2] = target: relaxin family peptide receptor-1 (human) (UniProt Q9HBX9); remark: listed apart in the source
[3] = target: relaxin family peptide receptor-1 (human) (UniProt Q9HBX9); remark: listed apart in the source

Chain of UniProt Q9HBX9 (Q9HBX9 whole entry): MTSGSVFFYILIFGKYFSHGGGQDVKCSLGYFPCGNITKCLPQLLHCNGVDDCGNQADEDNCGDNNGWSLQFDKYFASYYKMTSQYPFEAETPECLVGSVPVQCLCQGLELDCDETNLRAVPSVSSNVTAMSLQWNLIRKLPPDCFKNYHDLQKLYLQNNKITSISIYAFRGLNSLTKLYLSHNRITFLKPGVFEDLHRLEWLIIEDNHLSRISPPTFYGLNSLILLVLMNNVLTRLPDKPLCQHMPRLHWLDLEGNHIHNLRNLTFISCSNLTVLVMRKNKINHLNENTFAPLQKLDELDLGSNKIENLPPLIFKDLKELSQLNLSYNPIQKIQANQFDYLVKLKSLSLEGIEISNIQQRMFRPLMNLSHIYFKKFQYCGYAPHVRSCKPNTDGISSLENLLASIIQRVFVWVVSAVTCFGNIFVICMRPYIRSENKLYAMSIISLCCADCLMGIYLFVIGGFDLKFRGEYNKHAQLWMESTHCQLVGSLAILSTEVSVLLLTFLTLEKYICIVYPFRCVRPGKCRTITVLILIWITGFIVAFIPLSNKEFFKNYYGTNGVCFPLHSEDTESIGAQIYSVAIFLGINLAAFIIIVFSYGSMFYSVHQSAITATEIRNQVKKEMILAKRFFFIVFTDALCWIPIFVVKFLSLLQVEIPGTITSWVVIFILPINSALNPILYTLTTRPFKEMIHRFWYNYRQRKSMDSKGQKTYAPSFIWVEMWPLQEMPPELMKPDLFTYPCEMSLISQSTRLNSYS

- cAMP response of LX-2 cells (endogenous RXFP1) to 60 min H2-RLX after 40 h culture on plastic, mean pEC50 (n = 7) [1]: 9.1 pEC50
- cAMP response of primary hHSCs (endogenous RXFP1) to 60 min H2-RLX after 40 h culture, mean pEC50 across three patient samples [1]: 9 pEC50
- cAMP response, representative H2-RLX dose response in LX-2 cells (endogenous RXFP1), pEC50 [2]: 8.8 pEC50
- cAMP response, representative H2-RLX dose response in hHSCs (endogenous RXFP1), pEC50 [2]: 9.3 pEC50
- cAMP generation (TR-FRET Lance cAMP immunoassay), mean pEC50 of H2-RLX in HEK293 cells transduced with RXFP1 BacMam at 0.5%, 5% and 10% v/v (pEC50 9.7, 10.2 and 11.3) [3]: 11.3 pEC50
Substance: human relaxin-2 (ligand)
